Measured values as given in PMC8294587, “Intrinsic differences in the mechanisms of Tie2 binding to angiopoietins exploited by directed evolution to create an Ang2-selective ligand trap” (The Journal of Biological Chemistry, 2021).

T1: Angiopoietin-1 (UniProt Q15389 16-498)
T1 construct: recombinant Ang1; the residue numbers printed for Ang1 (Gln415, Asp450, Leu471, Tyr478) come from the cited structure 4K0V; also called Ang1; source: recombinant
T1 sequence (looked up): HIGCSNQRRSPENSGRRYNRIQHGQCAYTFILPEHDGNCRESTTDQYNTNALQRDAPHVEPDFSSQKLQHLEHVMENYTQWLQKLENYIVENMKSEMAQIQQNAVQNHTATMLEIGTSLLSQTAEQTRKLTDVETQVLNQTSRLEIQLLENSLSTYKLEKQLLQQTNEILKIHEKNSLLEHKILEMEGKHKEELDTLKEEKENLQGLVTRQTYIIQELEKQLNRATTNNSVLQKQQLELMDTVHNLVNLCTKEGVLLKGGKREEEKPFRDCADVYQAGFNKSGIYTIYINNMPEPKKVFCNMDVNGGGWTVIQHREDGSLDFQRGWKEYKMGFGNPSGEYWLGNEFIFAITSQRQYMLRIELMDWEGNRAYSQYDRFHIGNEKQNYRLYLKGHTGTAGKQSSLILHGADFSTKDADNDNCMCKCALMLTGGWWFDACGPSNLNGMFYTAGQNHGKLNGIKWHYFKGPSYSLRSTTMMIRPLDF

T2: Angiopoietin-2 (UniProt O15123 19-496)
T2 construct: recombinant Ang2; the residue numbers printed for Ang2 (Asp448, Phe469, Ser480) come from the cited structure 2GY7; also called Ang2; source: recombinant
T2 sequence (looked up): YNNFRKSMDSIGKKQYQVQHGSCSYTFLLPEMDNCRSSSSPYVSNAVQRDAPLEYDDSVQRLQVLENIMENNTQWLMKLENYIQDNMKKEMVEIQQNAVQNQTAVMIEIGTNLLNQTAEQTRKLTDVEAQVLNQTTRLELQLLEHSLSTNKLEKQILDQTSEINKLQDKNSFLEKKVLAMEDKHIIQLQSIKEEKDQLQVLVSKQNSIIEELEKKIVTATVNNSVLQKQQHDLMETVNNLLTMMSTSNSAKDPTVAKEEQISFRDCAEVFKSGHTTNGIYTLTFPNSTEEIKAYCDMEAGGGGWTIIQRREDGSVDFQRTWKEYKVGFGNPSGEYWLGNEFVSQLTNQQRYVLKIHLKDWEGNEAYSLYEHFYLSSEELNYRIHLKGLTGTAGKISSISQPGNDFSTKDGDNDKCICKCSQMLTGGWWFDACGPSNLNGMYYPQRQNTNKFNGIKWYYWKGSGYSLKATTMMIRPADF


Key:
Experiment in all cases: ELISA; recombinant Ang1 or Ang2 immobilised on Maxisorp plates, blocked with TBS, 0.1% Triton-X100, 5% milk powder; Tie2 ectodomain proteins bound for 1 h; detected with anti-Tie2 ectodomain antibodies; EC50 = concentration of ectodomain for 50% of maximal binding
Conditions in all cases: both partners purified
[1] = molecular target: T1, Angiopoietin-1
[2] = molecular target: T2, Angiopoietin-2
[3] = molecular target: T2, Angiopoietin-2; remark: listed apart in the source

EC50 [1] [nM]	EC50 [2] [nM]	binding result [3]	Binder
0.66	1.37		wild-type Tie2 ectodomain-Fc (Fc fusion, human, UniProt Q02763 23-442, looked up, signal peptide in the construct; Tie2 ectodomain, human, residues 1-442; Order on the chain: Tie2 1-442, GS4 linker, human Fc fragment, His6; also called Wt; Wt-Tie2; source: Hek293, transfected, purified from culture medium (nickel chromatography); not shown: Fc (fragment of human Fc immunoglobulin domain, after a GS4 linker), C-terminal, kept) AMDLILINSLPLVSDAETSLTCIASGWRPHEPITIGRDFEALMNQHQDPLEVTQDVTREWAKKVVWKREKASKINGAYFCEGRVRGEAIRIRTMKMRQQASFLPATLTMTVDKGDNVNISFKKVLIKEEDAVIYKNGSFIHSVPRHEVPDILEVHLPHAQPQDAGVYSARYIGGNLFTSAFTRLIVRRCEAQKWGPECNHLCTACMNNGVCHEDTGECICPPGFMGRTCEKACELHTFGRTCKERCSGQEGCKSYVFCLPDPYGCSCATGWKGLQCNEACHPGFYGPDCKLRCSCNNGEMCDRFQGCLCSPGWQGLQCEREGIQRMTPKIVDLPDHIEVNSGKFNPICKASGWPLPTNEEMTLVKPDGTVLHPKDFNHTDHFSVAIFTIHRILPPDSGVWVCSVNTVAGMVEKPFNISVK
26.4	0.5		Tie2 ectodomain-Fc H168A (Fc fusion, human, UniProt Q02763 23-442, looked up, signal peptide in the construct; Tie2 ectodomain, human, residues 1-442; also called Tie2(H168A); His168Ala; source: Hek293, transfected, purified from culture medium (nickel chromatography); not shown: Fc (fragment of human Fc immunoglobulin domain, after a GS4 linker), C-terminal, kept) AMDLILINSLPLVSDAETSLTCIASGWRPHEPITIGRDFEALMNQHQDPLEVTQDVTREWAKKVVWKREKASKINGAYFCEGRVRGEAIRIRTMKMRQQASFLPATLTMTVDKGDNVNISFKKVLIKEEDAVIYKNGSFIHSVPRAEVPDILEVHLPHAQPQDAGVYSARYIGGNLFTSAFTRLIVRRCEAQKWGPECNHLCTACMNNGVCHEDTGECICPPGFMGRTCEKACELHTFGRTCKERCSGQEGCKSYVFCLPDPYGCSCATGWKGLQCNEACHPGFYGPDCKLRCSCNNGEMCDRFQGCLCSPGWQGLQCEREGIQRMTPKIVDLPDHIEVNSGKFNPICKASGWPLPTNEEMTLVKPDGTVLHPKDFNHTDHFSVAIFTIHRILPPDSGVWVCSVNTVAGMVEKPFNISVK
		binds	Tie2 ectodomain-Fc Arg167Ala/His168Ala/Glu169Ala (Fc fusion, human, UniProt Q02763 23-442, looked up, signal peptide in the construct; Tie2 ectodomain, human, residues 1-442; also called triple alanine substitution of Arg167, His168 and Glu169; source: Hek293, transfected, purified from culture medium (nickel chromatography); not shown: Fc (fragment of human Fc immunoglobulin domain, after a GS4 linker), C-terminal, kept) AMDLILINSLPLVSDAETSLTCIASGWRPHEPITIGRDFEALMNQHQDPLEVTQDVTREWAKKVVWKREKASKINGAYFCEGRVRGEAIRIRTMKMRQQASFLPATLTMTVDKGDNVNISFKKVLIKEEDAVIYKNGSFIHSVPAAAVPDILEVHLPHAQPQDAGVYSARYIGGNLFTSAFTRLIVRRCEAQKWGPECNHLCTACMNNGVCHEDTGECICPPGFMGRTCEKACELHTFGRTCKERCSGQEGCKSYVFCLPDPYGCSCATGWKGLQCNEACHPGFYGPDCKLRCSCNNGEMCDRFQGCLCSPGWQGLQCEREGIQRMTPKIVDLPDHIEVNSGKFNPICKASGWPLPTNEEMTLVKPDGTVLHPKDFNHTDHFSVAIFTIHRILPPDSGVWVCSVNTVAGMVEKPFNISVK
14.3	77.7		Tie2 ectodomain-Fc V165A (Fc fusion, human, UniProt Q02763 23-442, looked up, signal peptide in the construct; Tie2 ectodomain, human, residues 1-442; source: Hek293, transfected, purified from culture medium (nickel chromatography); not shown: Fc (fragment of human Fc immunoglobulin domain, after a GS4 linker), C-terminal, kept) AMDLILINSLPLVSDAETSLTCIASGWRPHEPITIGRDFEALMNQHQDPLEVTQDVTREWAKKVVWKREKASKINGAYFCEGRVRGEAIRIRTMKMRQQASFLPATLTMTVDKGDNVNISFKKVLIKEEDAVIYKNGSFIHSAPRHEVPDILEVHLPHAQPQDAGVYSARYIGGNLFTSAFTRLIVRRCEAQKWGPECNHLCTACMNNGVCHEDTGECICPPGFMGRTCEKACELHTFGRTCKERCSGQEGCKSYVFCLPDPYGCSCATGWKGLQCNEACHPGFYGPDCKLRCSCNNGEMCDRFQGCLCSPGWQGLQCEREGIQRMTPKIVDLPDHIEVNSGKFNPICKASGWPLPTNEEMTLVKPDGTVLHPKDFNHTDHFSVAIFTIHRILPPDSGVWVCSVNTVAGMVEKPFNISVK
9	3.94		Tie2 ectodomain-Fc E169A (Fc fusion, human, UniProt Q02763 23-442, looked up, signal peptide in the construct; Tie2 ectodomain, human, residues 1-442; also called Glu169Ala; source: Hek293, transfected, purified from culture medium (nickel chromatography); not shown: Fc (fragment of human Fc immunoglobulin domain, after a GS4 linker), C-terminal, kept) AMDLILINSLPLVSDAETSLTCIASGWRPHEPITIGRDFEALMNQHQDPLEVTQDVTREWAKKVVWKREKASKINGAYFCEGRVRGEAIRIRTMKMRQQASFLPATLTMTVDKGDNVNISFKKVLIKEEDAVIYKNGSFIHSVPRHAVPDILEVHLPHAQPQDAGVYSARYIGGNLFTSAFTRLIVRRCEAQKWGPECNHLCTACMNNGVCHEDTGECICPPGFMGRTCEKACELHTFGRTCKERCSGQEGCKSYVFCLPDPYGCSCATGWKGLQCNEACHPGFYGPDCKLRCSCNNGEMCDRFQGCLCSPGWQGLQCEREGIQRMTPKIVDLPDHIEVNSGKFNPICKASGWPLPTNEEMTLVKPDGTVLHPKDFNHTDHFSVAIFTIHRILPPDSGVWVCSVNTVAGMVEKPFNISVK
